Reference: the Immune Epitope Database (IEDB)

Experiments:
HLA-A*03:01 [1] = assay: IEDB peptide-MHC binding, cellular MHC/competitive/fluorescence; ≥ and ≤ were set here for values at or beyond the usual limits of such assays; conditions: source organism: Hepatitis B virus
HLA-A*11:01 = assay: as above; conditions: source organism: Hepatitis B virus
HLA-A*68:01 [2] = assay: as above; conditions: source organism: Hepatitis B virus
HLA-A*02:02 [3] = assay: IEDB peptide-MHC binding, purified MHC/competitive/radioactivity; ≥ and ≤ were set here for values at or beyond the usual limits of such assays
HLA-A*02:03 [4] = assay: as above
HLA-A*02:06 [5] = assay: as above
HLA-A*31:01 [6] = assay: as above; conditions: source organism: Hepatitis B virus
HLA-A*68:02 [7] = assay: as above
HLA-A*01:01 = assay: IEDB peptide-MHC binding, cellular MHC/competitive/fluorescence; ≥ and ≤ were set here for values at or beyond the usual limits of such assays; conditions: source organism: Vaccinia virus WR
HLA-A*23:01 [8] = assay: as above; conditions: source organism: Vaccinia virus WR
HLA-A*24:02 = assay: as above; conditions: source organism: Vaccinia virus WR
HLA-A*26:01 = assay: as above; conditions: source organism: Vaccinia virus WR
HLA-A*29:02 = assay: as above; conditions: source organism: Vaccinia virus WR
HLA-A*30:02 = assay: as above; conditions: source organism: Vaccinia virus WR
HLA-A*02:01 [9] = assay: IEDB peptide-MHC binding, purified MHC/competitive/radioactivity; ≥ and ≤ were set here for values at or beyond the usual limits of such assays
HLA-A*02:01 [10] = assay: IEDB peptide-MHC binding, cellular MHC/competitive/fluorescence; ≥ and ≤ were set here for values at or beyond the usual limits of such assays
HLA-A*02:02 [11] = assay: as above
HLA-A*02:03 [12] = assay: as above
HLA-A*02:06 [13] = assay: as above
HLA-A*68:02 [14] = assay: as above; conditions: source organism: Hepatitis B virus
HLA-A*03:01 [15] = assay: IEDB peptide-MHC binding, purified MHC/competitive/radioactivity; ≥ and ≤ were set here for values at or beyond the usual limits of such assays; conditions: source organism: Hepatitis B virus
HLA-A*31:01 [16] = assay: IEDB peptide-MHC binding, cellular MHC/competitive/fluorescence; ≥ and ≤ were set here for values at or beyond the usual limits of such assays; conditions: source organism: Hepatitis B virus
HLA-A*68:01 [17] = assay: IEDB peptide-MHC binding, purified MHC/competitive/radioactivity; ≥ and ≤ were set here for values at or beyond the usual limits of such assays; conditions: source organism: Hepatitis B virus
HLA-A*23:01 [18] = assay: as above; conditions: source organism: Vaccinia virus WR
[19] = source organism: Hepatitis B virus
[20] = source organism: Vaccinia virus WR

| Sequence | IC50 (HLA-A*11:01) | IC50 (HLA-A*68:01 [2]) | IC50 (HLA-A*02:02 [3]; [19]) | IC50 (HLA-A*02:03 [4]; [19]) | IC50 (HLA-A*02:06 [5]; [19]) | IC50 (HLA-A*31:01 [6]) | IC50 (HLA-A*68:02 [7]; [19]) | IC50 (HLA-A*01:01) | IC50 (HLA-A*24:02) | IC50 (HLA-A*26:01) | IC50 (HLA-A*29:02) | IC50 (HLA-A*30:02) | IC50 (HLA-A*68:02 [14]) | IC50 (HLA-A*03:01 [15]) | IC50 (HLA-A*02:01 [9]; [19]) | further results |
| --- | --- | --- | --- | --- | --- | --- | --- | --- | --- | --- | --- | --- | --- | --- | --- | --- |
| WMMWYWGPSL | ≥ 70 µM | ≥ 70 µM | 354 nM | 0.068 µM | 0.305 µM | 0.784 µM | 3.59 µM |  |  |  |  |  |  |  |  | IC50 (HLA-A*03:01 [1]): 15.4 µM |
| VQTIVFIWFI |  |  |  |  |  |  |  | 5.13 µM | ≥ 70 µM | 16 µM | 20.3 µM | 13.3 µM |  |  |  | IC50 (HLA-A*23:01 [8]): 32.8 µM; IC50 (HLA-A*02:01 [9]; [20]): 0.952 µM |
| EQRRSTIFDI |  |  |  |  |  |  |  | 17.7 µM | ≥ 70 µM | ≥ 70 µM | ≥ 70 µM | ≥ 70 µM |  |  |  | IC50 (HLA-A*02:01 [10]; [20]): 22.5 µM; IC50 (HLA-A*02:02 [11]; [20]): 23 µM; IC50 (HLA-A*02:03 [12]; [20]): 11.5 µM; IC50 (HLA-A*02:06 [13]; [20]): 25.5 µM; IC50 (HLA-A*23:01 [8]): 50.8 µM; IC50 (HLA-A*68:02 [7]; [20]): 1.03 µM |
| QQFANVISKI |  |  |  |  |  |  |  | ≥ 70 µM | ≥ 70 µM | ≥ 70 µM | ≥ 70 µM | 9.29 µM |  |  |  | IC50 (HLA-A*02:01 [10]; [20]): 7.32 µM; IC50 (HLA-A*23:01 [8]): 12.2 µM; IC50 (HLA-A*02:02 [3]; [20]): 51 nM; IC50 (HLA-A*02:03 [4]; [20]): 0.0017 µM; IC50 (HLA-A*02:06 [5]; [20]): 0.863 µM; IC50 (HLA-A*68:02 [7]; [20]): 1.05 µM |
| ILLLCLIFL | 13.8 µM | 30.3 µM | 1120 nM | 1.53 µM | 0.145 µM | 1.48 µM |  |  |  |  |  |  | 12.1 µM | 0.624 µM |  |  |
| RVRGLYFPA | ≥ 70 µM | ≥ 70 µM | 3120 nM | 3.96 µM |  | 0.024 µM |  |  |  |  |  |  | 17.2 µM |  |  | IC50 (HLA-A*02:01 [10]; [19]): 18 µM; IC50 (HLA-A*02:06 [13]; [19]): 8.24 µM; IC50 (HLA-A*03:01 [1]): ≥ 70 µM |
| CLRRFIIFL | ≥ 70 µM | ≥ 70 µM |  |  |  |  |  |  |  |  |  |  | 48.8 µM | 2.63 µM | 1.39 µM | IC50 (HLA-A*02:02 [11]; [19]): 7.11 µM; IC50 (HLA-A*02:03 [12]; [19]): 14.6 µM; IC50 (HLA-A*02:06 [13]; [19]): 10.1 µM; IC50 (HLA-A*31:01 [16]): 6.65 µM |
| CQCTVQEFI |  |  |  |  |  |  |  | 28.5 µM | 29 µM | 24.8 µM | 20.5 µM | ≥ 70 µM |  |  |  | IC50 (HLA-A*23:01 [8]): 44.5 µM; IC50 (HLA-A*02:01 [9]; [20]): 2.2 µM; IC50 (HLA-A*02:02 [3]; [20]): 2050 nM; IC50 (HLA-A*02:03 [4]; [20]): 4.79 µM; IC50 (HLA-A*02:06 [5]; [20]): 1.13 µM; IC50 (HLA-A*68:02 [7]; [20]): 1.73 µM |
| FLAPLPIHTA | 43.2 µM | 35.5 µM | 0.049 nM | 0.00028 µM | 0.013 µM |  | 0.971 µM |  |  |  |  |  |  | 4.09 µM | 0.0013 µM | IC50 (HLA-A*31:01 [16]): ≥ 70 µM |
| FLFILLLCL | 19 µM | 26.9 µM |  | 1.57 µM | 1.78 µM | 1.47 µM | 1.2 µM |  |  |  |  |  |  | 0.664 µM | 0.213 µM | IC50 (HLA-A*02:02 [11]; [19]): 7.02 µM |
| FLFILLLCLI | 9.73 µM |  | 956 nM | 1.98 µM | 0.934 µM | 0.215 µM | 4.5 µM |  |  |  |  |  |  | 0.716 µM | 0.135 µM | IC50 (HLA-A*68:01 [17]): 3.69 µM |
| FLLSLGIHL |  | 15.7 µM |  |  |  |  |  |  |  |  |  |  | 10.5 µM | 2.53 µM |  | IC50 (HLA-A*31:01 [16]): 6.79 µM |
| CLIFLLVLL | 35.7 µM | 34.9 µM | 1520 nM | 0.659 µM | 1.04 µM | 0.998 µM |  |  |  |  |  |  | 7.11 µM | 0.682 µM | 0.101 µM |  |
| VQSVLRDISI |  |  |  |  |  |  |  | 15.6 µM | 25.4 µM | 6.66 µM | ≥ 70 µM | 19.7 µM |  |  |  | IC50 (HLA-A*02:01 [9]; [20]): 0.497 µM; IC50 (HLA-A*02:02 [3]; [20]): 78 nM; IC50 (HLA-A*02:03 [4]; [20]): 0.541 µM; IC50 (HLA-A*02:06 [5]; [20]): 0.132 µM; IC50 (HLA-A*23:01 [18]): 3.5 µM; IC50 (HLA-A*68:02 [7]; [20]): 1.29 µM |
| LLWFHISCL | 32.5 µM | ≥ 70 µM | 307 nM |  | 0.382 µM |  |  |  |  |  |  |  | ≥ 70 µM | 3.26 µM |  | IC50 (HLA-A*31:01 [16]): 8.85 µM |
| LLVPFVQWFV | 8.09 µM | 45.2 µM | 0.17 nM |  |  | 0.161 µM | 0.068 µM |  |  |  |  |  |  | 0.476 µM |  | IC50 (HLA-A*02:03 [12]; [19]): 10.5 µM |
